# Assay results: the supplement of paper PMC9170038
# Test system: MS2 coat protein
# Assay: apparent KD of MS2 coat protein; designed switch direction (-1 OFF switch, 1 ON switch): -1; higher = weaker reporter binding
# Procedure, shortened: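 Apparent KD, taken as the median over clusters for each design, was obtained by curve-fitting normalised cluster fluorescence. Designed RNA switches had been transcribed on Illumina chips by stalled E. coli RNA polymerase and titrated with SNAP-549-labelled MS2 coat protein, doubling from 0.7 or 1.5 nM to 3 µM.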
# [1] = input ligand: microRNA oligo, concentration not stated
# [2] = Eterna round: R95, input ligand: microRNA oligo, concentration not stated
# [3] = Eterna round: R95, input ligand: FMN 200 uM
# [4] = Eterna round: R95, input ligand: none
Sequence,apparent KD of MS2 coat protein (input ligand: FMN 200 uM) [nM],apparent KD of MS2 coat protein (input ligand: none) [nM],apparent KD of MS2 coat protein [1] [nM],apparent KD of MS2 coat protein [2] [nM],apparent KD of MS2 coat protein [3] [nM],apparent KD of MS2 coat protein [4] [nM]
"GGUAUACAUGAGGAUCACCCAUGUCAGGAUAUGGAAACCUGUGCCGAAAGGCACAGGGCCAGAAGGGACGAUAG [AK-MS2ROC-r4-exclusion1-5.3] (Eterna round: R97, puzzle: Exclusion 1)",93.7,82.9,–,–,–,–
"CCGAGUCGAGUGAGGAUAUAGCUAAGACCGCUUAGCUAGAAGGCACAUGAGGAUCACCCAUGUCUUAGGAGAAG [Eternabot (L1) Solution 80] (Eterna round: R97, puzzle: Brourd's mod of Exclusion 4)",22.4,22.2,–,–,–,–
"CCGAGCAGACGGAGAUCCAACAUGAGGAUCACCCAUGUCUCAAAAGCUUUUUGCUUGUCUUAUUCUCCUCUGUUCUC [Qureorxe] (Eterna round: R96, puzzle: Sensor v3, turn-off variant 1)",13,15.6,29.6,–,–,–
"GUCGAGUGAGGAUAUGGUGAGUAGUGCCUGAGCGCUGCUCACCAGAAGGCACAUGAGGAUCACCCAUGUAUAAC [Mat - Exclusion 4 - Mod of JL - D14] (Eterna round: R96, puzzle: Exclusion 4)",58.1,26.1,19.7,–,–,–
"UAUAUGUUAGGAUAUCUCGUCAUGGAGGAAACUCCAUGACGAGAGAAGGAACAUGAGGAUCACCCAUGUUUAUU [Mod of Fisker 25 - Jieux - Exclusion 4] (Eterna round: R97, puzzle: Exclusion 4)",27.4,19,–,–,–,–
UUCCUCGUUGUGAGGAUAUCGUCCUCUUUUUGUUACGAGAAGGCACAUGAGGAUCACCCAUGUUUCUUGAUGUU [JR_BMOE4_Sub070] (puzzle: Brourd's mod of Exclusion 4),–,–,–,16.7,–,–
UUUUAGAGAGGAUAUAUAAUGUGAAACAUGAGGAUCACCCAUGUAAUAUUAUGGAUGUAAAUAGAAGGCUCAUUUA [JL-ex5-3.04] (puzzle: Exclusion 5),–,–,–,36.1,31.9,35.1
"GCCGAAAAUGUGAGGAUAUACCUAUGGAUACAUAGGUAGAAGGCACAUGAGGAUCACCCAUGUGUCCAAACGGC [Eli bmx4 4.22] (Eterna round: R97, puzzle: Brourd's mod of Exclusion 4)",58.2,14.5,–,–,–,–
"UGUACGAUGCGUGCUGACAUGCGUCGUGCAGCAGGUGAUACAUGAGGAUCACCCAUGUCCUCAUUUGCUCGUCUUGA [Mat - Sensor v3 - Turn-off var 2 - D20] (puzzle: Sensor v3, turn-off variant 2)",–,–,–,475,68.5,75.2
GUGUGCAGAGGAUAUACAGAGGAAGAGAAGAGAAGAGAAGGACAUGAGGAUCACCCAUGUAGAAGGCUGAGUGU [Excluse me!! 19 - Jieux - Exclusion 2] (puzzle: Exclusion 2),–,–,–,30.2,33.7,31.6
"UCUCCCACUCGAGGAUAUCCAUAGAGCAACUGAGGAGAAGGCGAGUGUCCAAAACAUGAGGAUCACCCAUGUGACCUCCCGAAC [Eredgein] (Eterna round: R96, puzzle: Exclusion NG 1)",101,39.6,37.5,–,–,–
"GGACAGGGAGGAUAUACUUGAGGAUCACCCAAGUCGUAUAAUCGAUGAUCACGCCGAAGUAGAAGGCCCAAAAC [EX3 #82] (Eterna round: R97, puzzle: Exclusion 3)",36.1,353,–,–,–,–
"UCGUAGGAAGGAUAUGCAUGCUUUGAUAAAUCCAGGCCUGGACAUGAGGAUCACCCAUGUAGAAGGUCCACGGA [EX2 B.11] (Eterna round: R97, puzzle: Exclusion 2)",36.6,31.4,–,–,–,–
